According to patent US9481899B2, “Methods and compositions for producing hydrocarbons” (priority 2008, dated 2016):
Like-named read-outs stand apart in the source and are kept apart here.

T1: PCC7942_orf1594 protein (Synechococcus elongatus, UniProt Q54765)
T1 construct: made in house; host or cells: E. coli BL21 (DE3)
T1 sequence (Q54765 1-341): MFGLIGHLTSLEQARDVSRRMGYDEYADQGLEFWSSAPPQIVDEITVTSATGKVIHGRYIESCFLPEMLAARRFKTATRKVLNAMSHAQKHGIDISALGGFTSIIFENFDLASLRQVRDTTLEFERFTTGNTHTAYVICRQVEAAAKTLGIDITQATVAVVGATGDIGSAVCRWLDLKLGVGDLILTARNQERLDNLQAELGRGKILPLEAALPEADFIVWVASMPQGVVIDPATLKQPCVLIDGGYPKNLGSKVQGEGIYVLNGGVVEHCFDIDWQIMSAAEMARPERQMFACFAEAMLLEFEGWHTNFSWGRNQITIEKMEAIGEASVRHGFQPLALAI

B1: SEQ ID NO: 9: Acaryochloris marina MBIC11017 AM1_4041, putative decarbonylase (protein, listed as Acaryochloris marina)
chain: MPQTQAISEIDFYSDTYKDAYSRIDGIVIEGEQEAHENYIRLGEMLPEHQDDFIRLSKMEARHKKGFEACGRNLKVTCDLDFARRFFSDLHKNFQDAAAEDKVPTCLVIQSLIIECFAIAAYNIYIPVADDFARKITESVVKDEYQHLNYGEEWLKAHFDDVKAEIQEANRKNLPIVWRMLNEVDKDAAVLGMEKEALVEDFMIQYGEALSNIGFSTGEIMRMSAYGLVAA
B2: SEQ ID NO: 7: Nostoc sp. PCC7210 alr5283, putative decarbonylase (protein, listed as Nostoc sp.)
chain: MQQVAADLEIDFKSEKYKDAYSRINAIVIEGEQEAYENYIQLSQLLPDDKEDLIRLSKMESRHKKGFEACGRNLQVSPDMEFAKEFFAGLHGNFQKAAAEGKIVTCLLIQSLIIECFAIAAYNIYIPVADDFARKITEGVVKDEYSHLNFGEVWLQKNFAQSKAELEEANRHNLPIVWKMLNQVADDAAVLAMEKEALVEDFMIQYGEALSNIGFTTRDIMRMSAYGLTAA
B3: SEQ ID NO: 15: Gloeobacter violaceus PCC7421 gll3146, putative decarbonylase (protein, listed as Gloeobacter violaceus)
chain: VNRTAPSSAALDYRSDTYRDAYSRINAIVLEGEREAHANYLTLAEMLPDHAEALKKLAAMENRHFKGFQSCARNLEVTPDDPFARAYFEQLDGNFQQAAAEGDLTTCMVIQALIIECFAIAAYNVYIPVADAFARKVTEGVVKDEYTHLNFGQQWLKERFVTVREGIERANAQNLPIVWRMLNAVEADTEVLQMDKEAIVEDFMIAYGEALGDIGFSMRDVMKMSARGLASAPRQ
B4: SEQ ID NO: 5: Nostoc punctiforme PCC73102 Npun02004178, putative decarbonylase (protein)
chain: MQQLTDQSKELDFKSETYKDAYSRINAIVIEGEQEAHENYITLAQLLPESHDELIRLSKMESRHKKGFEACGRNLAVTPDLQFAKEFFSGLHQNFQTAAAEGKVVTCLLIQSLIIECFAIAAYNIYIPVADDFARKITEGVVKEEYSHLNFGEVWLKEHFAESKAELELANRQNLPIVWKMLNQVEGDAHTMAMEKDALVEDFMIQYGEALSNIGFSTRDIMRLSAYGLIGA
modifications: Nostoc punctiforme
notes: Nostoc punctiforme PCC73102 Npun02004178, putative decarbonylase

What was measured:
PCC7942_orf1594 protein = target: T1, PCC7942_orf1594 protein; assay: Acyl-ACP or acyl-CoA reductase enzyme assay; type: biochemical, Synechococcus elongatus PCC7942; conditions: for reduction to fatty aldehyde: 10 μM enzyme, MgCl2, NADPH, 1 h at 37° C.
Protocol: The genomic DNA encoding S. elongatus […] orf1594 (SEQ ID NO:65) was cloned into the NcoI and XhoI sites of vector pET-28b under the control of the T7 promoter. The resulting PCC7942_orf1594 protein contained a C-terminal His-tag. An E. coli BL21 strain (DE3) (Invitrogen) was transformed with the plasmid and PCC7942_orf1594 protein was expressed and purified as described in Example 22. The protein solution was stored in the following buffer: 50 mM sodium phosphate, pH 7.5, 100 mM NaCl, 1 mM THP, 10% glycerol. Protein concentration was determined using the Bradford assay (Biorad). 2 mg/mL of PCC7942_orf1594 protein was obtained.
To test PCC7942_orf1594 protein for acyl-ACP or acyl-CoA reductase activity, the following enzyme assays were set-up. 100 μL reactions were set-up in 50 mM Tris-HCl buffer at pH 7.5 with the following components at their respective final concentrations: 10 μM of purified PCC7942_orf1594 protein, 0.01-1 mM acyl-CoA or acyl-ACP, 2 mM MgCl2, 0.2-2 mM NADPH. The reactions were incubated for 1 h at 37° C. and where stopped by adding 100 μL ethyl acetate (containing 5 mg/l 1-octadecene as internal standard). Samples were vortexed for 15 min and centrifuged at max speed for 3 min for phase separation. 80 μL of the top layer were transferred into GC glass vials and analyzed by GC/MS as described in Example 26. The amount of aldehyde formed was calculated based on the internal standard.
Next, the stereospecific hydride transfer from NADPH to a fatty aldehyde catalyzed by PCC7942_orf1594 was examined. Deutero-NADPH was prepared according to the following protocol. 5 mg of NADP and 3.6 mg of D-glucose-1-d was added to 2.5 mL of 50 mM sodium phosphate buffer (pH 7.0). Enzymatic production of labeled NADPH was initiated by the addition of 5 units of glucose dehydrogenase from either Bacillus megaterium (USB Corporation) for the production of R-(4-^2H)NADPH or Thermoplasma acidophilum (Sigma) for the production of S-(4-^2H)NADPH. The reaction was incubated for 15 min at 37° C., centrifuge-filtered using a 10 KDa MWCO Amicon Ultra centrifuge filter (Millipore), flash frozen on dry ice, and stored at −80° C.
The in vitro assay reaction contained 50 mM Tris-HCl (pH 7.5), 10 μM of purified PCC7942_orf1594 protein, 1 mM octadecanoyl-CoA, 2 mM MgCl2, and 50 μL deutero-NADPH (prepared as described above) in a total volume of 100 μL. After a 1 h incubation, the product of the enzymatic reaction was extracted and analyzed as described above. The resulting fatty aldehyde detected by GC/MS was octadecanal (see FIG. 34). Because hydride transfer from NADPH is stereospecific, both R-(4-^2H)NADPH and S-(4-^2H)NADPH were synthesized.

E. coli MG1655 = assay: Coexpression of decarbonylase and aldehyde-generating enzyme in E. coli, GC-MS of hydrocarbons; type: cell-based; conditions: for Production of Alkanes and Alkenes: alkane/alkene biosynthetic polypeptide coexpressed in E. coli with the aldehyde biosynthetic polypeptide of the same table row; for fatty aldehyde decarbonylase activity in E. coli: cotransformed with S. elongatus PCC7942_1594 into E. coli MG1655, M9 minimal media, 37° C.
Excerpt: Seven cyanobacteria, whose complete genome sequences are publicly available, were selected for verification and/or detection of alkane biosynthesis: Synechococcus elongatus PCC7942, Synechococcus elongatus PCC6301, Anabaena variabilis ATCC29413, Synechocystis sp. PCC6803, Nostoc punctiforme PCC73102, Gloeobacter violaceus ATCC 29082, and Prochlorococcus marinus CCMP1986. Only the first three cyanobacterial strains from this list had previously been reported to contain alkanes (Han et al., J. Am. Chem. Soc. 91:5156-5159 (1969); Fehler et al., Biochem. 9:418-422 (1970)). The strains were grown photoautotrophically in shake flasks in 100 mL of the appropriate media (listed in Table 8) for 3-7 days at 30° C. at a light intensity of approximately 3,500 lux. Cells were extracted for alkane detection as follows: cells from 1 mL culture volume were centrifuged for 1 min at 13,000 rpm, the cell pellets were resuspended in methanol, vortexed for 1 min and then sonicated for 30 min. After centrifugation for 3 min at 13,000 rpm, the supernatants were transferred to fresh vials and analyzed by GC-MS. The samples were analyzed on either 30 m DP-5 capillary column (0.25 mm internal diameter) or a 30 m high temperature DP-5 capillary column (0.25 mm internal diameter) using the following method.
After a 1 μL splitless injection (inlet temperature held at 300° C.) onto the GC/MS column, the oven was held at 100° C. for 3 mins. The temperature was ramped up to 320° C. at a rate of 20° C./min. The oven was held at 320° C. for an additional 5 min. The flow rate of the carrier gas helium was 1.3 mL/min. The MS quadrapole scanned from 50 to 550 m/z. Retention times and fragmentation patterns of product peaks were compared with authentic references to confirm peak identity.
The genomic DNA encoding Synechococcus elongatus PCC7942 orf1594 (YP_400611; putative aldehyde-generating enzyme) (SEQ ID NO:65) was amplified and cloned into the NcoI and EcoRI sites of vector OP-80 (pCL1920 derivative) under the control of the Ptrc promoter. The resulting construct (“OP80-PCC7942_1594”) was transformed into E. coli MG1655 and the cells were grown at 37° C. in M9 minimal media with 1% (w/v) glucose as carbon source and supplemented with 100 μg/mL spectinomycin. When the culture reached OD600 of 0.8-1.0, it was induced with 1 mM IPTG and cells were grown for an additional 18-20 h at 37° C. Cells from 0.5 mL of culture were extracted with 0.5 mL of ethyl acetate. After sonication for 60 min, the sample was centrifuged at 15,000 rpm for 5 min. The solvent layer was analyzed by GC-MS as described in Example 1.
The genomic DNA encoding Synechococcus elongatus PCC7942 orf1593 (YP_400610; putative decarbonylase) (SEQ ID NO:1) was amplified and cloned into the NdeI and XhoI sites of vector OP-183 (pACYC derivative) under the control of the Ptrc promoter. The resulting construct was cotransformed with OP80-PCC7942_1594 into E. coli MG1655 and the cells were grown at 37° C. in M9 minimal media supplemented with 100 μg/mL spectinomycin and 100 μg/mL carbenicillin. The cells were cultured and extracted as in Example 3 and analyzed by GC-MS as described in Example 1. […]

[1] = tested on: E. coli MG1655 ΔfadD lacZ::Ptrc-′tesA; assay: Decarbonylase expression in fatty aldehyde-producing E. coli strain expressing MSMEG_5739; type: cell-based; conditions: coexpressed with M. smegmatis carboxylic acid reductase MSMEG_5739
[2] = in the presence of 2 mM NADPH, read-out: Km for the reduction

| Molecule | reduction to fatty aldehyde (PCC7942_orf1594 protein) | Production of Alkanes and Alkenes (E. coli MG1655) | fatty aldehyde decarbonylase activity in E. coli (E. coli MG1655) | conversion of fatty aldehydes provided by MSMEG_5739 to alkanes [1] | further results |
| --- | --- | --- | --- | --- | --- |
| octadecenoyl-ACP | able to reduce | – | – | – | Km (PCC7942_orf1594 protein; [2]): 7.8 ± 2 µM |
| NADPH | – | – | – | – | Km (PCC7942_orf1594 protein; in the presence of 0.5 mM octadecanoyl-CoA, read-out: Km value for NADPH): 400 ± 80 µM |
| octadecenoyl-CoA | able to reduce | – | – | – | Km (PCC7942_orf1594 protein; [2]): 82 ± 22 µM |
| NC(=O)C1=CN([C@@H]2O[C@H](COP(=O)(O)OP(=O)(O)OC[C@H]3O[C@@H](n4cnc5c(N)ncnc54)[C@H](O)[C@@H]3O)[C@@H](O)[C@H]2O)C=CC1 [NADH] | – | – | – | – | support of reductase activity as electron donor (PCC7942_orf1594 protein; octadecanoyl-CoA, Mg2+): did not support reductase activity |
| [2H]C1C=CN(C2OC(COP(=O)(O)OP(=O)(O)OCC3OC(n4cnc5c(N)ncnc54)C(OP(=O)(O)O)C3O)C(O)C2O)C=C1C(N)=O (stereo not drawn) [S-(4-^2H)NADPH] | – | – | – | – | stereospecific hydride transfer to fatty aldehyde (PCC7942_orf1594 protein; 1 mM octadecanoyl-CoA, deutero-NADPH, 1 h): Octadecanal with a plus one unit mass was observed |
| CCCCCCCCCCCCCCCCCC(=O)SCCNC(=O)CCNC(=O)[C@H](O)C(C)(C)COP(=O)(O)OP(=O)(O)OC[C@H]1O[C@@H](n2cnc3c(N)ncnc32)[C@H](O)[C@@H]1OP(=O)(O)O [octadecanoyl-CoA] | able to reduce | – | – | – | – |
| B1 | – | yes | active fatty aldehyde decarbonylase | converted fatty aldehydes provided by MSMEG_5739 to the corresponding alkanes | – |
| B2 | – | yes | active fatty aldehyde decarbonylase | converted fatty aldehydes provided by MSMEG_5739 to the corresponding alkanes | – |
| B3 | – | yes | active fatty aldehyde decarbonylase | converted fatty aldehydes provided by MSMEG_5739 to the corresponding alkanes | – |
| B4 | – | yes | active fatty aldehyde decarbonylase | converts tetradecanal, hexadecenal and hexadecanal provided by the carboxylic acid reductase MSMEG_5739 to tridecane, pentadecene and pentadecane | – |
